Results as given in patent US20100291070A1.

Biological target: PA1698 protein on Pseudomonas aeruginosa PA103 strain cells (Pseudomonas aeruginosa (PA103 strain))
Test: whole cell ELISA on immobilised P. aeruginosa PA103, 50 ug/well

negative control IgG fraction purified from control rat sera obtained by administering only adjuvant (antibody)
absorbance at 450 nm: 0.084
